The values that follow come from PMC6851316, “The C-terminal dimerization domain of the respiratory mucin MUC5B functions in mucin stability and intracellular packaging before secretion” (The Journal of Biological Chemistry, 2019).

Assay [1] addresses MUC5B C-terminal construct consisting of D4-B-C-CK (CT5B) (human) (UniProt Q9HC84). As to the kind of experiment: AUC; sedimentation velocity; CT5B with 5 mM CaCl2 overnight at 4 °C, 150 mM NaCl, 25 mM HEPES pH 7.4 or 25 mM MES pH 6 or pH 5; tests the step dimer to higher multimers.
Assay [2] shares this target. The assay is described as follows: SEC-MALS; CT5B incubated overnight at 4 °C in 5 mM CaCl2 or 5 mM EGTA, 150 mM NaCl, 25 mM HEPES pH 7.4 or 25 mM MES pH 6 or 5; Superose 6 10/300 GL at room temperature; tests the step dimer to higher multimers. A general note: SEC sorts molecules by how far they enter the pores of the column.
For assay [3] the target is unchanged. As to the kind of experiment: SEC-MALS; recombinant CT5B on Superose 6 10/300 GL, 0.2 M NaCl, pH 7.4; step: monomer to disulfide-linked dimer.
In assay [4] the target is T1, MUC5B C-terminal construct consisting of D4-B-C-CK (CT5B) (human, UniProt Q9HC84 4955-5762).
T1 construct: MUC5B, human, UniProtKB Q9HC84, D4-B-C-CK domains, residues 4955-5762; Mainly a disulfide-linked dimer with a small proportion of monomer; The dimer was used for cryo-EM, SPR (amine-coupled to a CM5 chip) and the homotypic tests; also called C-terminal dimerization domain of MUC5B; dimeric CT5B
T1 sequence (looked up): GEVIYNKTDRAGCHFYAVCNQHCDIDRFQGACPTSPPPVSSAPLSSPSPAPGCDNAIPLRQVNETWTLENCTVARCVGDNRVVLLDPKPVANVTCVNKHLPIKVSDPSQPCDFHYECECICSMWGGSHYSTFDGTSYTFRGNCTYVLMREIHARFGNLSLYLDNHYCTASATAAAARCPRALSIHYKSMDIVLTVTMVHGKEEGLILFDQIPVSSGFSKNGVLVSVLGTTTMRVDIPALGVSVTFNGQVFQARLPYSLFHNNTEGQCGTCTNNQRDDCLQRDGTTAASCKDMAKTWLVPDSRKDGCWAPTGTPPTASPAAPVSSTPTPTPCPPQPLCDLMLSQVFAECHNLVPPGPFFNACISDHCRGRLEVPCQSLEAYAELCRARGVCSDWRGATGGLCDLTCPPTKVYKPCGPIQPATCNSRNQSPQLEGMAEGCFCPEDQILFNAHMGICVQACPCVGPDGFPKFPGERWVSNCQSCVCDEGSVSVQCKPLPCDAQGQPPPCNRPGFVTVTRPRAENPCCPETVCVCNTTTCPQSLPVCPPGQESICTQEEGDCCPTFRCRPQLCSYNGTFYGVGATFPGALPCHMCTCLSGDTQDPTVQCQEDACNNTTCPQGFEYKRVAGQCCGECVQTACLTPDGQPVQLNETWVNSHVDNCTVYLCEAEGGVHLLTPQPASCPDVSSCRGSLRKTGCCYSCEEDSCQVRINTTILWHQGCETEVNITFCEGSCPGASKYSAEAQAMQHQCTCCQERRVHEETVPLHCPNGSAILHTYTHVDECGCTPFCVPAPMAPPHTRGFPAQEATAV
The assay is described as follows: MST; pH 6; 2.5 nM RED-NHS labelled NT5B, CT5B serially diluted 1:1 (starting concentration 6 μM); 25 mM HEPES, 150 mM NaCl, 0.05% Tween 20, with 5 mM CaCl2 or 5 mM EGTA; room temperature; KD model. Conditions: both partners purified.

In assay [5] the target is T1, MUC5B C-terminal construct consisting …. The assay is described as follows: SPR; single cycle kinetics, pH 6; CT5B immobilised on CM5 chip, NT5B 0, 5, 10, 15, 20 and 40 nM, HBS with 5 mM CaCl2 and 0.05% Tween 20; 1:1 Langmuir model. Conditions: both partners purified. On the technique in general: Surface plasmon resonance follows binding to a sensor surface in real time, without labels.

Assay [6] has the same target. As to the kind of experiment: MST; pH 7.4; 2.5 nM RED-NHS labelled NT5B, CT5B serially diluted 1:1 (starting concentration 6 μM); 25 mM HEPES, 150 mM NaCl, 0.05% Tween 20, with 5 mM CaCl2 or 5 mM EGTA; room temperature; KD model. Conditions: both partners purified.
Assay [7] has the same target. As to the kind of experiment: SPR; single cycle kinetics, pH 7.4; CT5B immobilised on CM5 chip, NT5B 0, 5, 10, 15, 20 and 40 nM, HBS with 5 mM CaCl2 and 0.05% Tween 20; 1:1 Langmuir model. Conditions: both partners purified.

The term stoichiometry N denotes a count of units in the complex or per binding partner. In the case of “MUC5B C-terminal construct consisting of D4-B-C-CK (CT5B) (from UniProt Q9HC84 4955-5762) (domain or fragment)”, the stoichiometry N in assay [1], in assay [2] and in assay [3] was 2 throughout.

B1: MUC5B N-terminal construct consisting of D1-D2-D′-D3 (NT5B) (domain or fragment)
chain: QGPVEPSWENAGHTMDGGAPTSSPTRRVSFVPPVTVFPSLSPLNPAHNGRVCSTWGDFHYKTFDGDVFRFPGLCNYVFSEHCRAAYEDFNVQLRRGLVGSRPVVTRVVIKAQGLVLEASNGSVLINGQREELPYSRTGLLVEQSGDYIKVSIRLVLTFLWNGEDSALLELDPKYANQTCGLCGDFNGLPAFNEFYAHNARLTPLQFGNLQKLDGPTEQCPDPLPLPAGNCTDEEGICHRTLLGPAFAECHALVDSTAYLAACAQDLCRCPTCPCATFVEYSRQCAHAGGQPRNWRCPELCPRTCPLNMQHQECGSPCTDTCSNPQRAQLCEDHCVDGCFCPPGTVLDDITHSGCLPLGQCPCTHGGRTYSPGTSFNTTCSSCTCSGGLWQCQDLPCPGTCSVQGGAHISTYDEKLYDLHGDCSYVLSKKCADSSFTVLAELRKCGLTDNENCLKAVTLSLDGGDTAIRVQADGGVFLNSIYTQLPLSAANITLFTPSSFFIVVQTGLGLQLLVQLVPLMQVFVRLDPAHQGQMCGLCGNFNQNQADDFTALSGVVEATGAAFANTWKAQAACANARNSFEDPCSLSVENENYARHWCSRLTDPNSAFSRCHSIINPKPFHSNCMFDTCNCERSEDCLCAALSSYVHACAAKGVQLSDWRDGVCTKYMQNCPKSQRYAYVVDACQPTCRGLSEADVTCSVSFVPVDGCTCPAGTFLNDAGACVPAQECPCYAHGTVLAPGEVVHDEGAVCSCTGGKLSCLGASLQKSTGCAAPMVYLDCSNSSAGTPGAECLRSCHTLDVGCFSTHCVSGCVCPPGLVSDGSGGCIAEEDCPCVHNEATYKPGETIRVDCNTCTCRNRRWECSHRLCLGTCVAYGDGHFITFDGDRYSFEGSCEYILAQDYCGDNTTHGTFRIVTENIPCGTTGTTCSKAIKLFVESYELILQEGTFKAVARGPGGDPPYKIRYMGIFLVIETHGMAVSWDRKTSVFIRLHQDYKGRVCGLCGNFDDNAINDFATRSRSVVGDALEFGNSWKLSPSCPDALAPKDPCTANPFRKSWAQKQCSILHGPTFAACRSQVDSTKYYEACVNDACACDSGGDCECFCTAVAAYAQACHDAGLCVSWRTPDTCPLFCDFYNPHGGCEWHYQPCGAPCLKTCRNPSGHCLVDLPGLEGCYPKCPPSQPFFNEDQMKCVAQCGCYDKDGNYYDVGARVPTAENCQSCNCTPSGIQCA
modifications: RED-NHS (amine reactive) fluorescent dye, in the MST experiments only
One may read the Kd as the constant that tells how readily two partners part at equilibrium. The low end stands for tighter binding, the high end for weaker binding. Take B1: the Kd was 3 ± 1.4 nM in assay [4], around 1 nM in assay [5], 7.4 ± 1.5 nM in assay [6] and around 3 nM in assay [7]. Besides, the “binding response, fold lower than at pH 6” value in assay [7] was 5 fold.
